Here are results for one molecule from patent US20260265321A1, “PEPTIDE AND POLYPEPTIDE INHIBITING THE NF-KB SIGNALING PATHWAY” (Centre National de la Recherche Scientifique, priority 2023, published 2026).

Some results are limits rather than exact numbers.

For experiment [1], the target named is T1, IKKα(10-667) S176E/S180E homodimer, 6×His tag removed (human, UniProt O15111 10-667).
T1 construct: also called purified IKKα
T1 sequence (looked up): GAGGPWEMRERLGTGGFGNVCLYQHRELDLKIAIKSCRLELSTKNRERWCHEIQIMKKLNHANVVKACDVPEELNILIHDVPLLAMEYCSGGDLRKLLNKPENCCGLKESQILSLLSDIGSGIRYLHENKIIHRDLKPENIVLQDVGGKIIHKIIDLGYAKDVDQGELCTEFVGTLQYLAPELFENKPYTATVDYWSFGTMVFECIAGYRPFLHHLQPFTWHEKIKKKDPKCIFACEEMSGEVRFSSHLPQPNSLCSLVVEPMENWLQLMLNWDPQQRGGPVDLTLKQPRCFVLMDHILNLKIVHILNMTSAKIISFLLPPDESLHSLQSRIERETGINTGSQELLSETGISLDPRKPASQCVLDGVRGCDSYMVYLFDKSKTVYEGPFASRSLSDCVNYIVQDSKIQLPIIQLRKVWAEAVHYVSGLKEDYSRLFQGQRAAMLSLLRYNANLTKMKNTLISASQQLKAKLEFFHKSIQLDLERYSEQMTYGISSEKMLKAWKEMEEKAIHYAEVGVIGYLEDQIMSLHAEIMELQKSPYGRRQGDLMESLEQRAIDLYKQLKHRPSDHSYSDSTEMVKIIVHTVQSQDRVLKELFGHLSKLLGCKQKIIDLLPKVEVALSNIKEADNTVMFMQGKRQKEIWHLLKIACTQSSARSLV
Briefly: ITC, 25 °C, 1:1 model; values called estimates; table value; footnote calls it an estimate. As for the experimental part:
(§1) All experiments were performed in ITC buffer (20 mM HEPES pH 8.0, 150 mM NaCl, 1 mM TCEP) unless otherwise stated. […] Just before the ITC experiments, IKKα or IKKβ samples were concentrated, incubated at room temperature for 30 minutes and centrifuged at 11000 g to remove eventual precipitate. The final concentrations of IKKα and IKKβ in the sample cell varied between 22 and 50 μM depending on the measurement. […] The concentration of peptides in the syringe varied between 220 and 975 μM depending on the measurement.
(§2) All ITC experiments were performed at 25° C. The data were fitted to a 1:1 binding model. […] All data were processed using NITPIC software and global fitting of two datasets was carried out using SEDPHAD.

Experiment [2] has as its target T1, IKKα(10-667) S176E/S180E homodimer, …. Briefly: ITC, given as a lower bound. In general terms: ITC needs no label: the signal is the heat of the interaction.
Experiment [3] has the same target. Nature of the experiment: ITC, 25 °C, 1:1 model; values called estimates. As for the experimental part: as §1, §2

B1: synthetic IRF7 pep (peptide)
peptide: LSSANSLYDDIECFLMELEQPA
For the molecule B1, the Kd – broadly, the free concentration of one partner at which half of the binding sites on the other are occupied at equilibrium, for simple one-to-one binding – in experiment [1] was around 90 µM. Also, in experiment [2], the dissociation constant (Kd) is above 90 µM. For the same molecule, in experiment [3], the TΔS was -1.2 kcal/mol, the ΔG was -5.5 kcal/mol and the ΔH is -6.7 kcal/mol.
